Source: patent US20260027152A1 (SANGAMO THERAPEUTICS, published 2026)

T1: human IL23Ra (coated on beads) (human, UniProt Q5VWK5 24-353, limits assumed)
T1 construct: also called human IL-23R alpha subunit
T1 sequence (looked up): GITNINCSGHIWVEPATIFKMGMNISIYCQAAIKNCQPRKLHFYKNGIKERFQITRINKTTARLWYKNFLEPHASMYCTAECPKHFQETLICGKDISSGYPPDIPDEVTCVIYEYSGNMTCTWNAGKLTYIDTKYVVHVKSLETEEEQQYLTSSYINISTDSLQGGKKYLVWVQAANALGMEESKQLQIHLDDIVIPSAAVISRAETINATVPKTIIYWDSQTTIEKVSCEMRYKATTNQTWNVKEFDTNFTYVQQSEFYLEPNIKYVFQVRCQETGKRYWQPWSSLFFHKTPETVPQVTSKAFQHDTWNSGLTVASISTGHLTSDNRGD

T2: mouse IL23Ra (coated on beads) (mouse, UniProt Q8K4B4 24-372, limits assumed)
T2 construct: also called mouse IL-23R alpha subunit
T2 sequence (looked up): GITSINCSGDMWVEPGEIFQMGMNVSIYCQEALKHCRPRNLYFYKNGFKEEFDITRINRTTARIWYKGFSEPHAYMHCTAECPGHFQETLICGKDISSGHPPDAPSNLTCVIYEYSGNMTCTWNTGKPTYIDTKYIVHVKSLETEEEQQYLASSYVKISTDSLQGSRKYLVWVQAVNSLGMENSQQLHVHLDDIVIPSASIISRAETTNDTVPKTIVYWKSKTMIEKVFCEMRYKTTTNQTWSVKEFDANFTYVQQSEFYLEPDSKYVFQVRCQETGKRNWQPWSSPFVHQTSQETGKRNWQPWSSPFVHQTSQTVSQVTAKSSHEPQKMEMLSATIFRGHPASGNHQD

B1: CAR #2 (anti-IL-23R chimeric antigen receptor with scFv IL23RLamS4-G3, CD8 hinge, CD8 TM, CD28, CD3 zeta) (other)
chain: SYPYDVPDYASQSVLTQPPSVSGAPGQRVTISCTGSSSNIGAGYDVHWYQQLPGTAPKLLIYGNNNRPSGVPDRFSGSKSGTSASLAITGLQAEDEADYYCQSYDTGLSAWVFGGGTKLTVLGGGGSGGGGSGGGGSQLQLQESGPGLVKPSETLSLTCTVSGGSITSSNYYWGWIRQPPGKGLEWIGSIYYSGNTYYNPSLKSRVTISVDTSKNQFSLKLSSVTAADTAVYYCAREWSPYESEGFDYWGQGTLVTVSSTTTPAPRPPTPAPTIASQPLSLRPEACRPAAGGAVHTRGLDFACDIYIWAPLAGTCGVLLLSLVITLYCRSKRSRLLHSDYMNMTPRRPGPTRKHYQPYAPPRDFAAYRSRVKFSRSADAPAYQQGQNQLYNELNLGRREEYDVLDKRRGRDPEMGGKPRRKNPQEGLYNELQKDKMAEAYSEIGMKGERRRGKGHDGLYQGLSTATKDTYDALHMQALPPR
B2: anti-IL-23R scFv IL23RLamS4-G3 (scFv)
scFv: QSVLTQPPSVSGAPGQRVTISCTGSSSNIGAGYDVHWYQQLPGTAPKLLIYGNNNRPSGVPDRFSGSKSGTSASLAITGLQAEDEADYYCQSYDTGLSAWVFGGGTKLTVLGGGGSGGGGSGGGGSQLQLQESGPGLVKPSETLSLTCTVSGGSITSSNYYWGWIRQPPGKGLEWIGSIYYSGNTYYNPSLKSRVTISVDTSKNQFSLKLSSVTAADTAVYYCAREWSPYESEGFDYWGQGTLVTVSS
modifications: biotinylated (sites not given)
notes: also called hmIL23R LamS4-G3; scFv of the present disclosure

How the values were obtained:
[1] = biological target: IL-23R (coated on beads, Example 1); test: cell-based or functional assay
Chain of IL-23R (coated on beads, Example 1) (Q5VWK5 whole entry): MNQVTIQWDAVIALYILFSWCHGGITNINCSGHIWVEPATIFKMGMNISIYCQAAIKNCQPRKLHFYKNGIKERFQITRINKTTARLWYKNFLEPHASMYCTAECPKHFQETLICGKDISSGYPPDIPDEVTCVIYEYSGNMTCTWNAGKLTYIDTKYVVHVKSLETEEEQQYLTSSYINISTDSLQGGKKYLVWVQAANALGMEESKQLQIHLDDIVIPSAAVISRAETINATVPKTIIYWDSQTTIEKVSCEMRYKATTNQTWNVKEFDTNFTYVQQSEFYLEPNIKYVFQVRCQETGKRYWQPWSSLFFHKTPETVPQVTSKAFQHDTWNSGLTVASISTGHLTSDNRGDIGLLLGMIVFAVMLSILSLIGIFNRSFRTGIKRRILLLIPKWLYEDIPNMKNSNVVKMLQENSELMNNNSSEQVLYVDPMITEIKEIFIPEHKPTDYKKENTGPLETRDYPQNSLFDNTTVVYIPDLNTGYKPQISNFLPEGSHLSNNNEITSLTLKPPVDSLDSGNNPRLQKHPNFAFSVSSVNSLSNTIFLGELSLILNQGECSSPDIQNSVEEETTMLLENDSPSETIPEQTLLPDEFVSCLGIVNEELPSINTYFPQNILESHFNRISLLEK

[2] = biological target: T1, human IL23Ra (coated on beads); test: flow cytometry; biotinylated scFv on human IL23Ra-coated beads, detected with APC-streptavidin, EC50 from median fluorescence intensity
Method: (§1) The indicated scFVs were produced in mammalian 293tcells, purified and biotinylated. Biotinylated scFvs were then incubated at 25° C. with mouse or human IL23Ra-coated beads for 30 min in PBS. After cold washing, bound IL23R bound scFV was detected by incubation with APC-labelled Streptavidin and analysis of the samples on a Flow-cytometer. An EC50 was calculated based on the median fluorescence intensity from each condition. Calculation, curve fitting and EC50 calculation was performed via Graphpad Prism.

[3] = biological target: T2, mouse IL23Ra (coated on beads); test: flow cytometry; biotinylated scFv on mouse IL23Ra-coated beads, detected with APC-streptavidin, EC50 from median fluorescence intensity
Method: as §1

[4] = biological target: T2, mouse IL23Ra (coated on beads); test: ratio of the EC50 values on mouse and human IL23Ra-coated beads (flow cytometry)
Method: as §1

Binder | CD69+ cells (CAR-Treg activation) after 24 h with IL-23R coated beads, fold increase [1] | EC50 [2] | EC50 [3] | fold difference in binding affinity between human IL23R and mouse IL23R [4]
B1 | 3.6 fold |  |  | 
B2 |  | 37.6 nM | 53.1 nM | ~1.4 fold
